Experimental findings from patent US8889621B2, “Inhibiting binding of FGF23 to the binary FGFR-Klotho complex for the treatment of hypophosphatemia” (New York University, priority 2009, dated 2014) are described below.

This experiment has as its target T1, binary FGFR1c-Klotho complex (UniProt O35082+P11362).
T1 construct: The ectodomain of murine Klotho (A35 to K982) was purified from culture media; FLAG (C); made in house; host or cells: E. coli (FGFR1c, FGF23); HEK293 (Klotho ectodomain)
T1 sequence (P11362 142-365): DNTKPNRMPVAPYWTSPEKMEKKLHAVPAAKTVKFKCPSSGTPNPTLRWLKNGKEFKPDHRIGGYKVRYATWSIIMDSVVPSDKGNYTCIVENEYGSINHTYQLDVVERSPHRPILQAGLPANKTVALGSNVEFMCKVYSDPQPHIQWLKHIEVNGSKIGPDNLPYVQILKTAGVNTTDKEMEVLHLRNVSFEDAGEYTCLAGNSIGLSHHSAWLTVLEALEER
T1 sequence (O35082 35-982): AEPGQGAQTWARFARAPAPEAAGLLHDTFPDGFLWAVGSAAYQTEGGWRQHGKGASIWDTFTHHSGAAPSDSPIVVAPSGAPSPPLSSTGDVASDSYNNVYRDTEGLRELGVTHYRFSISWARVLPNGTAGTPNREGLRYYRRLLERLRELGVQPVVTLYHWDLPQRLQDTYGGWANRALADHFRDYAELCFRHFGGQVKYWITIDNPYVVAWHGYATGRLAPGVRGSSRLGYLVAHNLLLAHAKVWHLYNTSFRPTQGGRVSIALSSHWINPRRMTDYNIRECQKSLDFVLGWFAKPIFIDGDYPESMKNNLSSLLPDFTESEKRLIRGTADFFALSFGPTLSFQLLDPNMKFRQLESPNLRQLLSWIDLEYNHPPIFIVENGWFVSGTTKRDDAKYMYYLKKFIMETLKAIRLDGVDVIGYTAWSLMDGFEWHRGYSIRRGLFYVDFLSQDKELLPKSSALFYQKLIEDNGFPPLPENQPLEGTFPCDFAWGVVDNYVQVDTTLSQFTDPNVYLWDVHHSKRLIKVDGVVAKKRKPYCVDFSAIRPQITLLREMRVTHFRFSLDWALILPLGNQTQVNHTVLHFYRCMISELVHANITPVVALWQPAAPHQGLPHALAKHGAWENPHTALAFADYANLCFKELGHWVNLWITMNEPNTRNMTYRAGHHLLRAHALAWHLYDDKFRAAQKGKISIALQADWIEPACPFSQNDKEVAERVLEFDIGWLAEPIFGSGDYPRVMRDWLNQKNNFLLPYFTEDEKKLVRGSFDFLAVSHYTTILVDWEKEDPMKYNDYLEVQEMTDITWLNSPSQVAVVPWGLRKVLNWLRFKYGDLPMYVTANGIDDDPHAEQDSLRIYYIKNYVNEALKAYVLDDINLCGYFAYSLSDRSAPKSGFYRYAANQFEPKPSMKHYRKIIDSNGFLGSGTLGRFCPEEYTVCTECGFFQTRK
The experiment can be described thus: Reverse SPR competition: FGFR1c-Klotho binding to immobilized FGF23^180-251. Also on record: species or system human FGFR1c, murine Klotho. As to conditions: reverse SPR format. The procedure: A variety of interaction or binding assays can be used to determine that an agent specifically binds the binary FGFR-Klotho complex, such as the SPR interaction analysis described below. One aspect of the present invention utilizes SPR analysis of FGF23 protein/peptide binding to the binary FGFR-Klotho complex. The SPR analysis involved FGF23 protein/peptide immobilization by amine coupling on flow channels of a chip. Proteins were injected over the chip at a flow rate of 50 μl min^−1, and at the end of each protein injection (180 s), HBS-EP buffer (10 mM HEPES-NaOH, pH 7.4, 150 mM NaCl, 3 mM EDTA, 0.005% (v/v) polysorbate 20; 50 μl min^−1) was flowed over the chip to monitor dissociation for 180 s. The chip surface was then regenerated by injecting 50 μl of 2.0 M NaCl in 10 mM sodium acetate, pH 4.5. […] For each protein injection over a FGF23 protein/peptide chip, the nonspecific responses from the FHF1B control flow channel were subtracted from the responses recorded for the flow channel onto which FGF23 protein/peptide was immobilized. […] As a control, competition of FGF23 C-terminal tail peptide in solution with immobilized FGF23 C-terminal tail peptide for binding to the binary FGFR1c-Klotho complex was analyzed. […]

B1: FGF23^28-251: human FGF23 (A28 to I251), bioactive full-length ligand expressed in E. coli (protein, listed as Homo sapiens)
chain: ASPLLGSSWGGLIHLYTATARNSYHLQIHKNGHVDGAPHQTIYSALMIRSEDAGFVVITGVMSRRYLCMDFRGNIFGSHYFDPENCRFQHQTLENGYDVYHSPQYHFLVSLGRAKRAFLPGMNPPPYSQFLSRRNEIPLIHFNTPIPRRHTRSAEDDSERDPLNVLKPRARMTPAPASCSQELPSAEDNSPMASDPLGVVRGGRVNTHAGGTGPEGCRPFAKFI
As for B1, the “inhibition of FGFR1c-Klotho binding to immobilized FGF23^180-251” value is listed as “inhibition”.

B2: FGF23^180-251: 72-amino acid C-terminal tail of human FGF23 (S180 to I251), expressed in E. coli (protein, listed as Homo sapiens)
chain: SAEDDSERDPLNVLKPRARMTPAPASCSQELPSAEDNSPMASDPLGVVRGGRVNTHAGGTGPEGCRPFAKFI
As to B2, the “inhibition of FGFR1c-Klotho binding to immobilized FGF23^180-251” value was “inhibition”.
